EC50 and Kd data for eight molecules are collected here from patent US20230235075A1 (published 2023).

Experiment [1] has as its target T1, Human CD93 recombinant protein (Sino Biological Inc, Catalog #12589-H08H) (human, UniProt Q9NPY3 22-580, biotinylated with EZ-LINK NHS-PEG4 biotin in the Octet assays).
T1 chain: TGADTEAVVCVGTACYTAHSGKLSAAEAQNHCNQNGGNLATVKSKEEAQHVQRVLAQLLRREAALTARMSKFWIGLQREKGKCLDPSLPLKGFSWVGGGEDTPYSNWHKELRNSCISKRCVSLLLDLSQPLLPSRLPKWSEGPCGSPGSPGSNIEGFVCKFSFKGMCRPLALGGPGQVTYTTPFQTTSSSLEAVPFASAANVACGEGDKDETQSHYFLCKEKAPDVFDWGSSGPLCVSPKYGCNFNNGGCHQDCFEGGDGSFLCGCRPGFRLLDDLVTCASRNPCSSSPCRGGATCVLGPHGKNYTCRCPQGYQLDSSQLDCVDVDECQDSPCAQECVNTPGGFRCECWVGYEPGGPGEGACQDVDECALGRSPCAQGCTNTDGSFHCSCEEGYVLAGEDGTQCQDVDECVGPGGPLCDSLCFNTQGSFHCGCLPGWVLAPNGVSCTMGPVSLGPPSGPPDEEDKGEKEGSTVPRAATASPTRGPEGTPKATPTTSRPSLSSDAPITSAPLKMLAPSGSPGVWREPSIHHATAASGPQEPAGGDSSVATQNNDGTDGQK
Put plainly: ELISA. Background: An ELISA detects its analyte on a solid surface through an enzyme-linked reagent.

Experiment [2] has as its target T1, Human CD93 recombinant protein (Sino …). Kind of experiment: BLI (Octet). (In general: BLI is a label-free optical method that tracks binding on a fibre tip over time.)
Experiment [3] shares this target. Put plainly: Octet.
For experiment [4] the target is unchanged. Put plainly: ELISA.
The target is the same in experiment [5]. Put plainly: Octet BLI.
For experiment [6] the target is unchanged. Kind of experiment: ELISA.
Experiment [7] shares this target. Kind of experiment: ELISA; unit printed as pmM.
Experiment [8] concerns the target T2, cynomolgus CD93 protein (made in-house) (cynomolgus, UniProt A0A2K5VH53 22-580, biotinylated with EZ-LINK NHS-PEG4 biotin in the Octet assays).
T2 chain: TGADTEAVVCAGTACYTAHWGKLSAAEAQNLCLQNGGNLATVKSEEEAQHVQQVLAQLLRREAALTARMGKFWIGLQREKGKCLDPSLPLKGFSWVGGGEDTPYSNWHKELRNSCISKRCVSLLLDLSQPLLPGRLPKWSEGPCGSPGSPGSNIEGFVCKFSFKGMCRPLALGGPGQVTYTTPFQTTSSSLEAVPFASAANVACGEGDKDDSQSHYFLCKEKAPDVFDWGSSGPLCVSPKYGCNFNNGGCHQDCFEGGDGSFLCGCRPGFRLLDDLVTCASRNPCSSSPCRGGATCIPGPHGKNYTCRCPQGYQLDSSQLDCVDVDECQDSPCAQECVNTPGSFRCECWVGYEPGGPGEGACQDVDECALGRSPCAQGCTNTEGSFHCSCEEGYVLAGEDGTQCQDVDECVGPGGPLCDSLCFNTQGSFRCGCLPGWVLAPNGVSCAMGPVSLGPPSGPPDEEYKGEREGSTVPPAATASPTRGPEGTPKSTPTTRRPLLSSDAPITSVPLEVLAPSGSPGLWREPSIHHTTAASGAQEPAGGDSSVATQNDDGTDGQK
Kind of experiment: BLI.

Experiment [9] concerns the target T1, Human CD93 recombinant protein (Sino …). Kind of experiment: BLI.

B1: 7F3 (hybridoma) (antibody, V domains shown)
VH: QVQLQQSGADLVRPGASVKLSCKASGYTFTDYEMHWVKQTPVYGLEWIGGIDPETGDTAYNQNFKGKATLTADKSSSAAYMELRSLTSEDSAVYYCTNYGNLYYYAMDYWGQGTSVTVSS
VL: ENVLTQSPAIMSASPGEKVTMTCRASSSVSSSYLHWYQQKSGASPKLWIYSTSNLAFGVPARFSGSGSGTSYSLTISSVEAEDAATYYCQQYSGYPLTFGSGTKLEIK
The term EC50 denotes the midpoint of the concentration-response curve. Usually Kd stands for the free concentration of one partner at which half of the binding sites on the other are occupied at equilibrium, for simple one-to-one binding. As to B1, the EC50 in [1] and in [4] was 0.0667 nM in each case. Moreover, the values for the dissociation constant (Kd) in experiment [2] and in experiment [3] were 1.26 nM and 0.493 nM, respectively.

B2: 7F3-hIgG1 (antibody, V domains shown)
VH: B1 VH
VL: B1 VL
In the case of B2, the Kd in experiment [5] and in [3] was 0.588 nM throughout. In [1], the EC50 is 0.041 nM.

B3: Humanized 17B10 (VH3VL3, i.e., H3L3) (antibody, V domains shown)
VH: QVQLVQSGPEVKKPGESLKISCKASGYAFSSYWLNWVRQMPGKGLEWMGRIYPGDGDTDYNGKFKGQVTISADKSSGTAYLQLSSLKASDTAVYFCVRGDGYWAMDYWGQGTLVTVSS
VL: DIVMTQSPDSLAVSLGERATINCRFSKSLLHSNGITYLYWYQQKPGQPPKLLIYQMSNLASGVPDRFSGSGSGTDFTLTISSLQAEDVAVYYCAQNLELPWTFGGGTKLEIK
Regarding B3, the EC50 in experiment [6] was determined as 0.213 nM.

B4: 16E4 (hybridoma) (antibody, V domains shown)
VH: QVQLQQPGAELVKPGASVKLSCKASGYTFTSYWMHWVKQRPGQGLEWIGEIDPSASYTYYNQKFKGKATLTVDKSSSTAYMQLSSLTSEDSAVYYCARSVYYGNKYFDVWGAGTTVTVSS
VL: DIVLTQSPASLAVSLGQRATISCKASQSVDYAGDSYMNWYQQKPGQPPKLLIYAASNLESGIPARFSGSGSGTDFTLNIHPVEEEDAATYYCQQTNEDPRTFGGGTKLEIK
Take B4: the concentration giving a half-maximal response (EC50) in experiment [7] and in [1] was 0.112 nM each time. Also, the Kd in experiment [8] came out at 0.446 nM; in [9], 0.447 nM; in experiment [3], 0.334 nM.

B5: 16E4-hIgG1 (antibody, V domains shown)
VH: B4 VH
VL: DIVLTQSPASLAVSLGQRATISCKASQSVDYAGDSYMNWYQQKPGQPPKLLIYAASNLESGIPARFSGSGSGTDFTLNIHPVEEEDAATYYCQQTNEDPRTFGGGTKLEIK
On to B5, for which the 50% effective concentration (EC50) in experiment [6] stood at 0.041 nM; in [1], 0.041 nM; in experiment [4], 0.022 nM. The Kd in [5] and in experiment [3] was 0.135 nM in each case.

B6: 10B1 (antibody, V domains shown)
VH: QVQLKQSGPGLVQPSQSLSITCTVSDFSLSSFGVNWVRQPPGKGLEWLGVIWSGGSTDYNVAFISRLSISKDNSKSQVFFKMNNLQADDTAIYYCARNWRYDGYFYAMDYWGQGTSVTVSS
VL: DIVMTQSQKFMSTSTGDRVSVTCKASQNVGTNVAWYQQKPGQSPKALIYSASYRFIGVPDRFTGSGSGTDFTLTITNVQSEDLAEYFCQQYNRNPITFGSGTKLEIK
B6: the Kd in experiment [2] amounted to 0.904 nM.

B7: recombinant parental 17B10-hFc (antibody, V domains shown)
VH: QVQLQQSGPELVKPGASVKISCKASGYAFSSYWLNWVKQRPGKGLEWFGRIYPGDGDTDYNGKFKGKATLTADKSSSTAYMQLRSLTSEDSAVYFCVRGDGYWAMDYWGQGTSVTVSS
VL: DIVMTQAAFSNPVTLGTSASISCRFSKSLLHSNGITYLYWYLQKPGQSPQLLIYQMSNLASGVPDRFSSSGSGTDFTLRISRVEAEDVGVYYCAQNLELPWTFGGGTKLEIK
As for B7, the EC50 in [6] came out at 0.0167 nM.

B8: 17B10 (hybridoma) (antibody, V domains shown)
VH: B7 VH
VL: B7 VL
On to B8, for which the concentration for a half-maximal effect (EC50) in experiment [6] was found to be 0.153 nM.
